According to IntAct's records for PubMed 24480479:

B1: Focal adhesion kinase 1 (Rattus norvegicus (Rat)), O35346 (parent)
chain: MAAAYLDPNLNHTPSSSTKTHLGTGTERSPGAMERVLKVFHYFESSNEPTTWASIIRHGDATDVRGIIQKIVDSHKVKHVACYGFRLSHLRSEEVHWLHVDMGVSSVREKYELAHPPEEWKYELRIRYLPKGFLNQFTEDKPTLNFFYQQVKSDYMLEIADQVDQDIALKLGCLEIRRSYWEMRGNALEKKSNYEVLEKDVGLKRFFPKSLLDSVKAKTLRKLIQQTFRQFANLNREESILKFFEILSPVYRFDKECFKCALGSSWIISVELAIGPEEGISYLTDKGCNPTHLADFNQVQTIQYSNSEDKDRKGMLQLKIAGAPEPLTVTAPSLTIAENMADLIDGYCRLVNGATQSFIIRPQKEGERALPSIPKLANNEKQGMRTHAVSVSETDDYAEIIDEEDTYTMPSTRDYEIQRERIELGRCIGEGQFGDVHQGVYLSPENPALAVAIKTCKNCTSDSVREKFLQEALTMRQFDHPHIVKLIGVITENPVWIIMELCTLGELRSFLQVRKYSLDLASLILYAYQLSTALAYLESKRFVHRDIAARNVLVSSNDCVKLGDFGLSRYMEDSTYYKASKGKLPIKWMAPESINFRRFTSASDVWMFGVCMWEILMHGVKPFQGVKNNDVIGRIENGERLPMPPNCPPTLYSLMTKCWAYDPSRRPRFTELKAQLSTILEEEKVQQEERMRMESRRQATVSWDSGGSDEAPPKPSRPGYPSPRSSEGFYPSPQHMVQTNHYQISGYPGSHGIPAMAGSIYPGQASLLDQTELWNHRPQEMSMWQPSVEDSAALDLRGMGQVLPPHLMEERLIRQQQEMEEDQRWLEKEERFLKPDVRLSRGSIDREDGSFQGPTGNQHIYQPVGKPDPAAPPKKPPRPGAPGHLSNLSSISSPAESYNEGVKPWRLQPQEISPPPTANLDRSNDKVYENVTGLVKAVIEMSSKIQPAPPEEYVPMVKEVGLALRTLLATVDETIPILPASTHREIEMAQKLLNSDLGELISKMKLAQQYVMTSLQQEYKKQMLTAAHALAVDAKNLLDVIDQARLKMLGQTRPH

Variants of: B1
Conditions: with paxi_mouse Pxn

| Variant | effect of a mutation on the interaction |
| --- | --- |
| W266A | disrupting interaction |
